Patent publication US20210309732A1 (ELIXIRON IMMUNOTHERAPEUTICS HONG KONG, published 2021)
Numbering of substitutions follows the chain as printed. Names and notes keep the numbering of the source. Like-named read-outs stand apart in the source and are kept apart here.

B1: AMG203 (namilumab) (antibody, INN chains, looked up, human IgG1, V domains shown)
VH: QVQLVQSGAEVKKPGASVKVSCKAFGYPFTDYLLHWVRQAPGQGLEWVGWLNPYSGDTNYAQKFQGRVTMTRDTSISTAYMELSRLRSDDTAVYYCTRTTLISVYFDYWGQGTMVTVSS
VL: DIQMTQSPSSVSASVGDRVTIACRASQNIRNILNWYQQRPGKAPQLLIYAASNLQSGVPSRFSGSGSGTDFTLTINSLQPEDFATYYCQQSYSMPRTFGGGTKLEIK
modifications: IgG1 kappa
B2: 1D2 SDR mutant HK54G (antibody, IgG1, V domains shown)
VH: QVQLVQSGAEVKKPGASVKVSCEASGYTFTDKYLHWVRQAPGQGLEWMAWINPGSGGTFYAQNFKGRVTVTRDTSINTAYLELTSLRLDDTSTYYCARGRDYYDQGAADLWGQGTMVTVSS
VL: DIQLTQSPSSLSASVGDRVTITCRASQGINSVLAWYQQKPGKAPKLLLYAASKLESGVPSRFSGSGSGTDYTLTISSLQPEDFGTYYCQQYYSPVRTFGQGTKVEIKR
notes: also called X3 G
B3: 1D2 SDR mutant HQ105N (antibody, IgG1, V domains shown)
VH: B2 VH with G54K, Q105N
VL: B2 VL
notes: also called X7 N
B4: 1D2 SDR mutant HY103N (antibody, IgG1, V domains shown)
VH: B2 VH with G54K, Y103N
VL: B2 VL
notes: also called X6 N
B5: 1D2 SDR mutant HY103R (antibody, IgG1, V domains shown)
VH: B2 VH with G54K, Y103R
VL: B2 VL
notes: also called X6 R
B6: 1D2 SDR mutant K54G/V32R (antibody, IgG1, V domains shown)
VH: B2 VH
VL: B2 VL with V32R
notes: also called 54G/32R
B7: 1D2 SDR mutant LP94N (antibody, IgG1, V domains shown)
VH: B2 VH with G54K
VL: B2 VL with P94N
notes: also called X9 N
B8: 1D2 SDR mutant LV32R (antibody, IgG1, V domains shown)
VH: B2 VH with G54K
VL: B2 VL with V32R
notes: also called X8 R
B9: 1D2 SDR mutant LV95D (antibody, IgG1, V domains shown)
VH: B2 VH with G54K
VL: B2 VL with V95D
notes: also called X10 D
B10: 1D2 SDR mutant LV95E (antibody, IgG1, V domains shown)
VH: B2 VH with G54K
VL: B2 VL with V95E
notes: also called X10 E
B11: 1D2 SDR mutant LV95L (antibody, IgG1, V domains shown)
VH: B2 VH with G54K
VL: B2 VL with V95L
notes: also called X10 L
B12: 1D2 SDR mutant LV95P (antibody, IgG1, V domains shown)
VH: B2 VH with G54K
VL: B2 VL with V95P
notes: also called X10 P
B13: 1D2 SDR mutant LV95R (antibody, IgG1, V domains shown)
VH: B2 VH with G54K
VL: B2 VL with V95R
notes: also called X10 R
B14: 1D2 SDR mutant Y103N/V32R (antibody, IgG1, V domains shown)
VH: B2 VH with G54K, Y103N
VL: B2 VL with V32R
B15: 1D2 SDR mutant Y103R/V32R (antibody, IgG1, V domains shown)
VH: B2 VH with G54K, Y103R
VL: B2 VL with V32R
B16: 1D2-D89E (ED) (antibody, IgG1, V domains shown)
VH: B2 VH with G54K, D89E
VL: B2 VL
notes: also called ID2-D89E (ED); ED mutant
B17: 1D2-D90E (DE) (antibody, IgG1, V domains shown)
VH: B2 VH with G54K, D90E
VL: B2 VL
notes: also called ID2-D90E (DE); DE mutant

Legend:
[1] = target: recombinant human IL-3 (human) (UniProt P08700); experiment: cell-based or functional assay
[2] = target: recombinant human GM-CSF (human) (UniProt P04141); experiment: cell-based or functional assay
[3] = target: recombinant human GM-CSF (human) (UniProt P04141); experiment: SPR Biacore 3000, antibody captured by goat anti-human IgG, rhGM-CSF injected
[4] = target: recombinant human GM-CSF (human) (UniProt P04141); experiment: ELISA, GM-CSF coated on the plate, anti-human kappa light chain-HRP, OD 450 nm
rhesus GM-CSF (rhesus) = rhesus GM-CSF (rhesus) (UniProt Q9GL44); experiment: as above
recombinant human GM-CSF [5] = target: T1, recombinant human GM-CSF (human, UniProt P04141 18-144); experiment: Biacore
T1 construct: also called rhGM-CSF; CSF2

recombinant human GM-CSF [6] = target: T1, recombinant human GM-CSF; experiment: cell-based or functional assay
recombinant human GM-CSF [7] = target: T1, recombinant human GM-CSF; experiment: ELISA on coated rhGM-CSF, UBA relative to 1D2
How it was run: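 Antibody clones carrying SDR point mutants in VH or VL, each paired with the wild-type chain, were expressed in HEK293 cells. Culture media diluted 1:12000 were bound to plates coated with rhGM-CSF at 1 μg/mL for 1 h at room temperature. Detection used HRP anti-human antibody and Amplex Red fluorescence (Ex530/Em590), with UBA = fluorescence signal/dilution factor.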

recombinant human GM-CSF [8] = target: T1, recombinant human GM-CSF; experiment: Biacore; remark: listed apart in the source
recombinant human GM-CSF [9] = target: T1, recombinant human GM-CSF; experiment: Gator, Coating Ab
recombinant human GM-CSF [10] = target: T1, recombinant human GM-CSF; experiment: Gator, Coating Ag
recombinant human GM-CSF [11] = target: T1, recombinant human GM-CSF; experiment: Gator (pro), Coating Ag
recombinant human GM-CSF [12] = target: T1, recombinant human GM-CSF; experiment: cell-based or functional assay; remark: listed apart in the source
recombinant human GM-CSF [13] = target: T1, recombinant human GM-CSF; experiment: Biacore; remark: listed apart in the source
recombinant human GM-CSF [14] = target: T1, recombinant human GM-CSF; experiment: ELISA, human GM-CSF coated on the plate, anti-human kappa light chain-HRP, OD 450 nm
Description: (§1) Human and mouse GM-CSF have about 56% homology and are species specific. Rhesus and GM-CSF has 96.5% homologous to human GM-CSF (Hutchinson et al, J Med Virol 2001, 65:561-565, Genbank accession number AY007376). […] ELISA was performed as followed. Briefly, GM-CSF proteins were coated on the ELISA absorbing plates, then blocked by 1% BSA in PBS. […] After incubation, the plates were washed three times with TBST and incubated with anti-human kappa light chain conjugated HRP secondary antibodies. Plates were washed three times, TMB peroxidase substrate was added and reactions were stopped by adding 1 N sulfuric acid.

rhesus GM-CSF = rhesus GM-CSF (rhesus, UniProt Q9GL44 18-144); experiment: ELISA, rhesus GM-CSF coated on the plate, anti-human kappa light chain-HRP, OD 450 nm
Description: as §1

recombinant human GM-CSF (human), sequence (P04141 18-144 limits assumed): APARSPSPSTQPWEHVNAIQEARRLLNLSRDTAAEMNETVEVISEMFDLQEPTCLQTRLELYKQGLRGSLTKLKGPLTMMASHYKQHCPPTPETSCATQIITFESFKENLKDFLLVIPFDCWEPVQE
T1 sequence (P04141 18-144 limits assumed): as above
recombinant human IL-3 (human), sequence (P08700 20-152 limits assumed): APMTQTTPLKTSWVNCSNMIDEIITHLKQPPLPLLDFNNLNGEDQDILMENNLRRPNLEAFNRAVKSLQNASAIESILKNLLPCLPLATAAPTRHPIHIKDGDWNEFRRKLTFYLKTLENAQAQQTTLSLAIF
rhesus GM-CSF, sequence (Q9GL44 entry or part of it limits assumed): as the sequence (P04141 18-144 limits assumed) above, with S9G, E38K, I43V, T53S, R67Q, E104Q counted along it
rhesus GM-CSF (rhesus), sequence (Q9GL44 entry or part of it limits assumed): as the sequence (P04141 18-144 limits assumed) above, with S9G, E38K, I43V, T53S, R67Q, E104Q counted along it

Molecule | Ka (recombinant human GM-CSF [5]) | Kd (recombinant human GM-CSF [5]) | koff (recombinant human GM-CSF [5]) | kon (recombinant human GM-CSF [5]) | IC50 (M), inhibition of GM-CSF induced TF-1 cell proliferation (FIG. 5B) (recombinant human GM-CSF [6]) | binding affinity % of 1D2 (recombinant human GM-CSF [7]) | further results
MOR103 (otilimab) (antibody) |  |  |  |  |  |  | Mean Fluorescence Intensity of phospho-STAT5 (pY694) in human PBMCs stimulated with 10 ng/mL rhIL-3, 2 ug/mL antibody (no antibody: 102) [1]: 106 MFI
B1 |  |  |  |  |  |  | Mean Fluorescence Intensity of phospho-STAT5 (pY694) in human PBMCs stimulated with 10 ng/mL rhGM-CSF, 2 ug/mL antibody (no antibody: 122.0) [2]: 42.6 MFI; Mean Fluorescence Intensity of phospho-STAT5 (pY694) in human PBMCs stimulated with 10 ng/mL rhIL-3, 2 ug/mL antibody (no antibody: 102) [1]: 104 MFI; Kd [3]: 0.62 nM; koff [3]: 4.77e-05 s⁻¹; kon [3]: 296000 M⁻¹ s⁻¹; EC50 (read off the curve) [4]: 50 pM; EC50 (read off the curve) (rhesus GM-CSF (rhesus)): 50 pM
B2 | 2.89e+09 M⁻¹ | 0.346 nM | 0.000448 s⁻¹ | 1.3e+06 M⁻¹ s⁻¹ | 1.87e-09 M | 114% | 
B3 |  |  |  |  | 7.67e-09 M | 156% | 
B4 | 2.5e+09 M⁻¹ | 0.4 nM | 0.000669 s⁻¹ | 1.67e+06 M⁻¹ s⁻¹ | 3.6e-09 M | 130% | IC50 (M), inhibition of GM-CSF induced TF-1 cell proliferation (FIG. 5A) (recombinant human GM-CSF [6]): 3.41e-09 M
B5 | 2.42e+09 M⁻¹ | 0.414 nM | 0.00057 s⁻¹ | 1.38e+06 M⁻¹ s⁻¹ | 3.47e-09 M | 115% | 
B6 | 5.23e+08 M⁻¹ | 1.91 nM | 0.00197 s⁻¹ | 1.03e+06 M⁻¹ s⁻¹ | 6.62e-09 M |  | Kd (recombinant human GM-CSF [8]): 1.5 nM; Kd (recombinant human GM-CSF [9]): 0.929 nM; Kd (recombinant human GM-CSF [10]): 0.0222 nM; Kd (recombinant human GM-CSF [11]): 0.746 pM
B7 |  |  |  |  | 1.49e-09 M | 60% | 
B8 |  |  |  |  | 2.48e-09 M | 1030% | 
B9 |  |  |  |  |  | 47% | 
B10 |  |  |  |  |  | 40% | 
B11 |  |  |  |  |  | 41% | 
B12 |  |  |  |  |  | 46% | 
B13 |  |  |  |  |  | 45% | 
B14 | 2.37e+08 M⁻¹ | 4.22 nM | 0.0027 s⁻¹ | 640000 M⁻¹ s⁻¹ | ~6.83e-09 M |  | Kd (recombinant human GM-CSF [8]): 3.36 nM; Kd (recombinant human GM-CSF [9]): 1.44 nM; Kd (recombinant human GM-CSF [10]): 0.0201 nM; Kd (recombinant human GM-CSF [11]): 5.84 pM
B15 | 4.14e+08 M⁻¹ | 2.42 nM | 0.00241 s⁻¹ | 998000 M⁻¹ s⁻¹ | ~8.19e-09 M |  | Kd (recombinant human GM-CSF [8]): 7.76 nM; Kd (recombinant human GM-CSF [9]): 4.14 nM; Kd (recombinant human GM-CSF [10]): 0.0309 nM; Kd (recombinant human GM-CSF [11]): 2.8 pM
B16 |  |  |  |  |  |  | IC50, inhibition of GM-CSF induced TF-1 cell proliferation (recombinant human GM-CSF [12]): 97.1 pM; IC50, inhibition of rhGM-CSF induced CCL17 secretion from PBMCs (recombinant human GM-CSF [12]): 54.3 pM; IC50, inhibition of rhGM-CSF induced IL-8 secretion in U937 cells (recombinant human GM-CSF [12]): 51 pM; Kd (recombinant human GM-CSF [13]): 0.0732 nM; koff (recombinant human GM-CSF [13]): 0.000188 s⁻¹; kon (recombinant human GM-CSF [13]): 2.58e+06 M⁻¹ s⁻¹; EC50 (read off the curve) (recombinant human GM-CSF [14]): ~500 pM; EC50 (read off the curve) (rhesus GM-CSF): ~600 pM
B17 |  |  |  |  |  |  | IC50, inhibition of GM-CSF induced TF-1 cell proliferation (recombinant human GM-CSF [12]): 123 pM; IC50, inhibition of rhGM-CSF induced IL-8 secretion in U937 cells (recombinant human GM-CSF [12]): 54 pM; Kd (recombinant human GM-CSF [13]): 0.114 nM; koff (recombinant human GM-CSF [13]): 0.000198 s⁻¹; kon (recombinant human GM-CSF [13]): 1.74e+06 M⁻¹ s⁻¹; EC50 (read off the curve) (recombinant human GM-CSF [14]): ~500 pM; EC50 (read off the curve) (rhesus GM-CSF): ~600 pM
